Source: publication PMC1226315 (Nucleic Acids Research, 2005)

Target: human wild-type Cdk2 GST fusion protein (human, UniProt P24941 1-298)
Experiment: pull-down

binding result: binds
B1: Recombinant human wild-type DNA polymerase λ, His-tagged (enzyme)
chain: MDPRGILKAFPKRQKIHADASSKVLAKIPRREEGEEAEEWLSSLRAHVVRTGIGRARAELFEKQIVQHGGQLCPAQGPGVTHIVVDEGMDYERALRLLRLPQLPPGAQLVKSAWLSLCLQERRLVDVAGFSIFIPSRYLDHPQPSKAEQDASIPPGTHEALLQTALSPPPPPTRPVSPPQKAKEAPNTQAQPISDDEASDGEETQVSAADLEALISGHYPTSLEGDCEPSPAPAVLDKWVCAQPSSQKATNHNLHITEKLEVLAKAYSVQGDKWRALGYAKAINALKSFHKPVTSYQEACSIPGIGKRMAEKIIEILESGHLRKLDHISESVPVLELFSNIWGAGTKTAQMWYQQGFRSLEDIRSQASLTTQQAIGLKHYSDFLERMPREEATEIEQTVQKAAQAFNSGLLCVACGSYRRGKATCGDVDVLITHPDGRSHRGIFSRLLDSLRQEGFLTDDLVSQEENGQQQKYLGVCRLPGPGRRHRRLDIIVVPYSEFACALLYFTGSAHFNRSMRALAKTKGMSLSEHALSTAVVRNTHGCKVGPGRVLPTPTEKDVFRLLGLPYREPAERDW
